# According to article PMC12186490 (2025):
# B1: NRPS regulator NrpR (amino acids 1-285), recombinant, untagged (receptor)
# chain: GSHMNFGQAIDHLRRQKHFSVKQICGNYLSRQTYYRFVNNEVDISSTKLFYLLNHLNVNVDEFLFICNNFQLEKEFTDMEKIKIYFEKNNIVGLQNLLTSYSSQINVKEKIIYALISSLLGRLTNTSSCTEEKILRDYLINIETWTHYETVLFNNAMFIFDSEFIELIFRKINLNLEKYSTLRYYGNESIRMFINMIILYIDRQDIRRAKEALQIAKNFKINDDCMYEKSCIVFFNEVLNLLNGEISSLKICKSIIKYFNLIGSLSIAAMFESYLDTLIKNNPHITFN
# Legend:
# [1] = target: T1, fluorescein-labeled synthetic NRPS-inducing peptide (NIP) (Streptococcus salivarius K12, fluorescein label); assay: FP; pH 6.0
# [2] = target: T1, fluorescein-labeled synthetic …; assay: FP; pH 5.5
# [3] = target: T1, fluorescein-labeled synthetic …; assay: FP; pH 7.0
# [4] = target: T1, fluorescein-labeled synthetic …; assay: FP; pH 7.5
# [5] = target: T1, fluorescein-labeled synthetic …; assay: FP; pH 5.5; remark: listed apart in the source
# [6] = target: T1, fluorescein-labeled synthetic …; assay: FP; pH 7.5; remark: listed apart in the source
# [7] = target: T1, fluorescein-labeled synthetic …; assay: FP; pH 6.5
# [8] = target: T1, fluorescein-labeled synthetic …; assay: FP; pH 5.0
binder,measurement,setting,value
B1,Kd,[1],12.2 nM
same,Kd,[2],6.1 nM
same,Kd,[3],18.4 nM
same,Kd,[4],26 nM
same,Kd,[5],7.5 nM
same,Kd,[6],20.4 nM
same,Kd,[7],16.2 nM
same,Kd,[8],18 nM
